# Reference: publication PMC12416549 (2024)
# Where a chain is given by its changes, count along the chain named. Names and notes keep the numbering of the source.
# T1: TNFR1 (Homo sapiens, UniProt P19438)
# T1 chain: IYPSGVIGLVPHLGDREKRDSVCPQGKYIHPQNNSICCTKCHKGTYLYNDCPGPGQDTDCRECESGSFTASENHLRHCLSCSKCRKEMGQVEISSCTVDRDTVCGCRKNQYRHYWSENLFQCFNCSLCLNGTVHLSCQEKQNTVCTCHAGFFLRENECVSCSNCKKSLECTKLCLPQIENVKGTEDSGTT
# B1: V6M (designed binder)
# chain: SMEEEMEKAAKEYEKKKKEAIEKHLEKLKAKDKEAAERFLKELEEAAKEYAKDEAKTMSEEEAKRRAKKYKEKVLLSELSEEEQKEIKEAEEKLVRTILKYVEEAAK
# B2: E44W (designed binder)
# chain: B1 chain with M6V, E44W
# B3: T97E (designed binder)
# chain: B1 chain with M6V, T97E
# B4: K100G (designed binder)
# chain: B1 chain with M6V, K100G
# B5: K17P (designed binder)
# chain: B1 chain with M6V, K17P
# B6: E44D (designed binder)
# chain: B1 chain with M6V, E44D
# B7: H24R (designed binder)
# chain: B1 chain with M6V, H24R
# B8: K107N (designed binder)
# chain: B1 chain with M6V, K107N
# B9: K23A (designed binder)
# chain: B1 chain with M6V, K23A
# B10: E83P (designed binder)
# chain: B1 chain with M6V, E83P
# B11: A20I (designed binder)
# chain: B1 chain with M6V, A20I
# B12: K48C (designed binder)
# chain: B1 chain with M6V, K48C
# B13: K93H (designed binder)
# chain: B1 chain with M6V, K93H
# B14: E89D (designed binder)
# chain: B1 chain with M6V, E89D
# B15: E7Q (designed binder)
# chain: B1 chain with M6V, E7Q
# B16: E44V (designed binder)
# chain: B1 chain with M6V, E44V
# B17: E72Q (designed binder)
# chain: B1 chain with M6V, E72Q
# B18: S59A (designed binder)
# chain: B1 chain with M6V, S59A
# B19: K33I (designed binder)
# chain: B1 chain with M6V, K33I
# B20: E83C (designed binder)
# chain: B1 chain with M6V, E83C
# B21: E45W (designed binder)
# chain: B1 chain with M6V, E45W
# B22: K85R (designed binder)
# chain: B1 chain with M6V, K85R
# B23: S59Q (designed binder)
# chain: B1 chain with M6V, S59Q
# B24: L28T (designed binder)
# chain: B1 chain with M6V, L28T
# B25: L25G (designed binder)
# chain: B1 chain with M6V, L25G
# B26: K31F (designed binder)
# chain: B1 chain with M6V, K31F
# B27: E60S (designed binder)
# chain: B1 chain with M6V, E60S
# B28: L79D (designed binder)
# chain: B1 chain with M6V, L79D
# B29: E5Y (designed binder)
# chain: B1 chain with E5Y, M6V
# B30: E82S (designed binder)
# chain: B1 chain with M6V, E82S
# B31: K29R (designed binder)
# chain: B1 chain with M6V, K29R
# B32: A90L (designed binder)
# chain: B1 chain with M6V, A90L
# B33: E5T (designed binder)
# chain: B1 chain with E5T, M6V
# B34: I87N (designed binder)
# chain: B1 chain with M6V, I87N
# B35: K85T (designed binder)
# chain: B1 chain with M6V, K85T
# B36: K11T (designed binder)
# chain: B1 chain with M6V, K11T
# B37: K11S (designed binder)
# chain: B1 chain with M6V, K11S
# B38: E3T (designed binder)
# chain: B1 chain with E3T, M6V
# B39: E22H (designed binder)
# chain: B1 chain with M6V, E22H
# B40: M2W (designed binder)
# chain: B1 chain with M2W, M6V
# B41: K23M (designed binder)
# chain: B1 chain with M6V, K23M
# B42: E45Q (designed binder)
# chain: B1 chain with M6V, E45Q
# B43: V95K (designed binder)
# chain: B1 chain with M6V, V95K
# B44: R38L (designed binder)
# chain: B1 chain with M6V, R38L
# B45: A47R (designed binder)
# chain: B1 chain with M6V, A47R
# B46: I21C (designed binder)
# chain: B1 chain with M6V, I21C
# B47: A20V (designed binder)
# chain: B1 chain with M6V, A20V
# B48: E19H (designed binder)
# chain: B1 chain with M6V, E19H
# B49: E92P (designed binder)
# chain: B1 chain with M6V, E92P
# B50: K41S (designed binder)
# chain: B1 chain with M6V, K41S
# B51: L76M (designed binder)
# chain: B1 chain with M6V, L76M
# B52: E26H (designed binder)
# chain: B1 chain with M6V, E26H
# B53: E103N (designed binder)
# chain: B1 chain with M6V, E103N
# B54: L40Y (designed binder)
# chain: B1 chain with M6V, L40Y
# B55: I98A (designed binder)
# chain: B1 chain with M6V, I98A
# B56: E7I (designed binder)
# chain: B1 chain with M6V, E7I
# B57: E12K (designed binder)
# chain: B1 chain with M6V, E12K
# B58: E42T (designed binder)
# chain: B1 chain with M6V, E42T
# B59: E91F (designed binder)
# chain: B1 chain with M6V, E91F
# Target: T1, TNFR1
# Test: yeast display SC50
row,apparent Kd (screen) [pM],Binder
1,2730,B1
2,3300,B2
3,1690,B3
4,277,B4
5,22200,B5
6,869,B6
7,1050,B7
8,1540,B8
9,446,B9
10,3300,B10
11,539,B11
12,490,B12
13,869,B13
14,653,B14
15,4390,B15
16,446,B16
17,2050,B17
18,593,B18
19,790,B19
20,446,B20

row,apparent Kd (screen) [pM],Binder
1,1270,B21
2,593,B22
3,1160,B23
4,790,B24
5,1050,B25
6,446,B26
7,1540,B27
8,16700,B28
9,1540,B29
10,490,B30
11,539,B31
12,446,B32
13,446,B33
14,12500,B34
15,490,B35
16,446,B36
17,490,B37
18,1400,B38
19,539,B39
20,446,B40

row,apparent Kd (screen) [pM],Binder
1,869,B41
2,1050,B42
3,3630,B43
4,1160,B44
5,490,B45
6,490,B46
7,2730,B47
8,490,B48
9,7780,B49
10,869,B50
11,869,B51
12,539,B52
13,490,B53
14,869,B54
15,1690,B55
16,26900,B56
17,446,B57
18,9410,B58
19,12500,B59
